Laboratory results reported in article PMC7367873, “Dissecting the sequence determinants for dephosphorylation by the catalytic subunits of phosphatases PP1 and PP2A” (Nature Communications, 2020).

B1: KIF5B (protein, UniProt P33176 2-963, looked up)
Kinesin-1 heavy chain: ADLAECNIKVMCRFRPLNESEVNRGDKYIAKFQGEDTVVIASKPYAFDRVFQSSTSQEQVYNDCAKKIVKDVLEGYNGTIFAYGQTSSGKTHTMEGKLHDPEGMGIIPRIVQDIFNYIYSMDENLEFHIKVSYFEIYLDKIRDLLDVSKTNLSVHEDKNRVPYVKGCTERFVCSPDEVMDTIDEGKSNRHVAVTNMNEHSSRSHSIFLINVKQENTQTEQKLSGKLYLVDLAGSEKVSKTGAEGAVLDEAKNINKSLSALGNVISALAEGSTYVPYRDSKMTRILQDSLGGNCRTTIVICCSPSSYNESETKSTLLFGQRAKTIKNTVCVNVELTAEQWKKKYEKEKEKNKILRNTIQWLENELNRWRNGETVPIDEQFDKEKANLEAFTVDKDITLTNDKPATAIGVIGNFTDAERRKCEEEIAKLYKQLDDKDEEINQQSQLVEKLKTQMLDQEELLASTRRDQDNMQAELNRLQAENDASKEEVKEVLQALEELAVNYDQKSQEVEDKTKEYELLSDELNQKSATLASIDAELQKLKEMTNHQKKRAAEMMASLLKDLAEIGIAVGNNDVKQPEGTGMIDEEFTVARLYISKMKSEVKTMVKRCKQLESTQTESNKKMEENEKELAACQLRISQHEAKIKSLTEYLQNVEQKKRQLEESVDALSEELVQLRAQEKVHEMEKEHLNKVQTANEVKQAVEQQIQSHRETHQKQISSLRDEVEAKAKLITDLQDQNQKMMLEQERLRVEHEKLKATDQEKSRKLHELTVMQDRREQARQDLKGLEETVAKELQTLHNLRKLFVQDLATRVKKSAEIDSDDTGGSAAQKQKISFLENNLEQLTKVHKQLVRDNADLRCELPKLEKRLRATAERVKALESALKEAKENASRDRKRYQQEVDRIKEAVRSKNMARRGHSAQIAKPIRPGQHPAASPTHPSAIRGGGAFVQNSQPVAVRGGGGKQV
B2: SND1 (protein, UniProt Q7KZF4 2-910, looked up)
Staphylococcal nuclease …: ASSAQSGGSSGGPAVPTVQRGIIKMVLSGCAIIVRGQPRGGPPPERQINLSNIRAGNLARRAAATQPDAKDTPDEPWAFPAREFLRKKLIGKEVCFTIENKTPQGREYGMIYLGKDTNGENIAESLVAEGLATRREGMRANNPEQNRLSECEEQAKAAKKGMWSEGNGSHTIRDLKYTIENPRHFVDSHHQKPVNAIIEHVRDGSVVRALLLPDYYLVTVMLSGIKCPTFRREADGSETPEPFAAEAKFFTESRLLQRDVQIILESCHNQNILGTILHPNGNITELLLKEGFARCVDWSIAVYTRGAEKLRAAERFAKERRLRIWRDYVAPTANLDQKDKQFVAKVMQVLNADAIVVKLNSGDYKTIHLSSIRPPRLEGENTQDKNKKLRPLYDIPYMFEAREFLRKKLIGKKVNVTVDYIRPASPATETVPAFSERTCATVTIGGINIAEALVSKGLATVIRYRQDDDQRSSHYDELLAAEARAIKNGKGLHSKKEVPIHRVADISGDTQKAKQFLPFLQRAGRSEAVVEYVFSGSRLKLYLPKETCLITFLLAGIECPRGARNLPGLVQEGEPFSEEATLFTKELVLQREVEVEVESMDKAGNFIGWLHIDGANLSVLLVEHALSKVHFTAERSSYYKSLLSAEEAAKQKKEKVWAHYEEQPVEEVMPVLEEKERSASYKPVFVTEITDDLHFYVQDVETGTQLEKLMENMRNDIASHPPVEGSYAPRRGEFCIAKFVDGEWYRARVEKVESPAKIHVFYIDYGNREVLPSTRLGTLSPAFSTRVLPAQATEYAFAFIQVPQDDDARTDAVDSVVRDIQNTQCLLNVEHLSAGCPHVTLQFADSKGDVGLGLVKEGLVMVEVRKEKQFQKVITEYLNAQESAKSARLNLWRYGDFRADDADEFGYSR
B3: MPRIP (protein, UniProt Q6WCQ1 2-1025, looked up)
Myosin phosphatase …: SAAKENPCRKFQANIFNKSKCQNCFKPRESHLLNDEDLTQAKPIYGGWLLLAPDGTDFDNPVHRSRKWQRRFFILYEHGLLRYALDEMPTTLPQGTINMNQCTDVVDGEGRTGQKFSLCILTPEKEHFIRAETKEIVSGWLEMLMVYPRTNKQNQKKKRKVEPPTPQEPGPAKVAVTSSSSSSSSSSSIPSAEKVPTTKSTLWQEEMRTKDQPDGSSLSPAQSPSQSQPPAASSLREPGLESKEEESAMSSDRMDCGRKVRVESGYFSLEKTKQDLKAEEQQLPPPLSPPSPSTPNHRRSQVIEKFEALDIEKAEHMETNAVGPSPSSDTRQGRSEKRAFPRKRDFTNEAPPAPLPDASASPLSPHRRAKSLDRRSTEPSVTPDLLNFKKGWLTKQYEDGQWKKHWFVLADQSLRYYRDSVAEEAADLDGEIDLSACYDVTEYPVQRNYGFQIHTKEGEFTLSAMTSGIRRNWIQTIMKHVHPTTAPDVTSSLPEEKNKSSCSFETCPRPTEKQEAELGEPDPEQKRSRARERRREGRSKTFDWAEFRPIQQALAQERVGGVGPADTHEPLRPEAEPGELERERARRREERRKRFGMLDATDGPGTEDAALRMEVDRSPGLPMSDLKTHNVHVEIEQRWHQVETTPLREEKQVPIAPVHLSSEDGGDRLSTHELTSLLEKELEQSQKEASDLLEQNRLLQDQLRVALGREQSAREGYVLQATCERGFAAMEETHQKKIEDLQRQHQRELEKLREEKDRLLAEETAATISAIEAMKNAHREEMERELEKSQRSQISSVNSDVEALRRQYLEELQSVQRELEVLSEQYSQKCLENAHLAQALEAERQALRQCQRENQELNAHNQELNNRLAAEITRLRTLLTGDGGGEATGSPLAQGKDAYELEVLLRVKESEIQYLKQEISSLKDELQTALRDKKYASDKYKDIYTELSIAKAKADCDISRLKEQLKAATEALGEKSPDSATVSGYDIMKSKSNPDFLKKDRSCVTRQLRNIRSKSVIEQVSWDT
B4: ZYX (protein, UniProt Q15942 2-572, looked up)
Zyxin: AAPRPSPAISVSVSAPAFYAPQKKFGPVVAPKPKVNPFRPGDSEPPPAPGAQRAQMGRVGEIPPPPPEDFPLPPPPLAGDGDDAEGALGGAFPPPPPPIEESFPPAPLEEEIFPSPPPPPEEEGGPEAPIPPPPQPREKVSSIDLEIDSLSSLLDDMTKNDPFKARVSSGYVPPPVATPFSSKSSTKPAAGGTAPLPPWKSPSSSQPLPQVPAPAQSQTQFHVQPQPQPKPQVQLHVQSQTQPVSLANTQPRGPPASSPAPAPKFSPVTPKFTPVASKFSPGAPGGSGSQPNQKLGHPEALSAGTGSPQPPSFTYAQQREKPRVQEKQHPVPPPAQNQNQVRSPGAPGPLTLKEVEELEQLTQQLMQDMEHPQRQNVAVNELCGRCHQPLARAQPAVRALGQLFHIACFTCHQCAQQLQGQQFYSLEGAPYCEGCYTDTLEKCNTCGEPITDRMLRATGKAYHPHCFTCVVCARPLEGTSFIVDQANRPHCVPDYHKQYAPRCSVCSEPIMPEPGRDETVRVVALDKNFHMKCYKCEDCGKPLSIEADDNGCFPLDGHVLCRKCHTARAQT
B5: SORBS2 (protein, UniProt O94875 1-1100, looked up)
Sorbin and SH3 …: MSYYQRPFSPSAYSLPASLNSSIVMQHGTSLDSTDTYPQHAQSLDGTTSSSIPLYRSSEEEKRVTVIKAPHYPGIGPVDESGIPTAIRTTVDRPKDWYKTMFKQIHMVHKPDDDTDMYNTPYTYNAGLYNPPYSAQSHPAAKTQTYRPLSKSHSDNSPNAFKDASSPVPPPHVPPPVPPLRPRDRSSTEKHDWDPPDRKVDTRKFRSEPRSIFEYEPGKSSILQHERPASLYQSSIDRSLERPMSSASMASDFRKRRKSEPAVGPPRGLGDQSASRTSPGRVDLPGSSTTLTKSFTSSSPSSPSRAKGGDDSKICPSLCSYSGLNGNPSSELDYCSTYRQHLDVPRDSPRAISFKNGWQMARQNAEIWSSTEETVSPKIKSRSCDDLLNDDCDSFPDPKVKSESMGSLLCEEDSKESCPMAWGSPYVPEVRSNGRSRIRHRSARNAPGFLKMYKKMHRINRKDLMNSEVICSVKSRILQYESEQQHKDLLRAWSQCSTEEVPRDMVPTRISEFEKLIQKSKSMPNLGDDMLSPVTLEPPQNGLCPKRRFSIEYLLEEENQSGPPARGRRGCQSNALVPIHIEVTSDEQPRAHVEFSDSDQDGVVSDHSDYIHLEGSSFCSESDFDHFSFTSSESFYGSSHHHHHHHHHHHRHLISSCKGRCPASYTRFTTMLKHERARHENTEEPRRQEMDPGLSKLAFLVSPVPFRRKKNSAPKKQTEKAKCKASVFEALDSALKDICDQIKAEKKRGSLPDNSILHRLISELLPDVPERNSSLRALRRSPLHQPLHPLPPDGAIHCPPYQNDCGRMPRSASFQDVDTANSSCHHQDRGGALQDRESPRSYSSTLTDMGRSAPRERRGTPEKEKLPAKAVYDFKAQTSKELSFKKGDTVYILRKIDQNWYEGEHHGRVGIFPISYVEKLTPPEKAQPARPPPPAQPGEIGEAIAKYNFNADTNVELSLRKGDRVILLKRVDQNWYEGKIPGTNRQGIFPVSYVEVVKKNTKGAEDYPDPPIPHSYSSDRIHSLSSNKPQRPVFTHENIQGGGEPFQALYNYTPRNEDELELRESDVIDVMEKCDDGWFVGTSRRTKFFGTFPGNYVKRL
B6: BAIAP2 (protein, UniProt Q9UQB8 1-552, looked up)
BAR/IMD domain-containing …: MSLSRSEEMHRLTENVYKTIMEQFNPSLRNFIAMGKNYEKALAGVTYAAKGYFDALVKMGELASESQGSKELGDVLFQMAEVHRQIQNQLEEMLKSFHNELLTQLEQKVELDSRYLSAALKKYQTEQRSKGDALDKCQAELKKLRKKSQGSKNPQKYSDKELQYIDAISNKQGELENYVSDGYKTALTEERRRFCFLVEKQCAVAKNSAAYHSKGKELLAQKLPLWQQACADPSKIPERAVQLMQQVASNGATLPSALSASKSNLVISDPIPGAKPLPVPPELAPFVGRMSAQESTPIMNGVTGPDGEDYSPWADRKAAQPKSLSPPQSQSKLSDSYSNTLPVRKSVTPKNSYATTENKTLPRSSSMAAGLERNGRMRVKAIFSHAAGDNSTLLSFKEGDLITLLVPEARDGWHYGESEKTKMRGWFPFSYTRVLDSDGSDRLHMSLQQGKSSSTGNLLDKDDLAIPPPDYGAASRAFPAQTASGFKQRPYSVAVPAFSQGLDDYGARSMSRNPFAHVQLKPTVTNDRCDLSAQGPEGREHGDGSARTLAGR

Key:
[1] = tested on: GFP-14-3-3β and its binding proteins; assay: GFP-14-3-3β co-IP with LC-MS/MS label-free quantification, untreated versus PP1c-treated; design: species or system human
[2] = tested on: GFP-14-3-3β; assay: GFP-14-3-3β co-IP with LC-MS/MS, untreated GFP-14-3-3β versus GFP control (14-3-3 interactome); type: binding, human
[3] = PP1 vs untreated, LFQ intensities, replicates 1-3
[4] = untreated vs GFP, LFQ intensities, replicates 1-3

Molecule	Difference (log2), PP1 vs untreated [1, 3]	Difference (log2), untreated vs GFP [2, 4]	further results
B1	-1.944 log2	3.573 log2	–
B2	–	–	Difference (log2), PP1 vs untreated ([1]; log2 difference, pairwise comparison PP1 vs untreated, label-free quantification, 3 replicates each): 1.5668; Difference (log2), untreated vs GFP ([2]; log2 difference, pairwise comparison untreated vs GFP, label-free quantification, 3 replicates each): -0.5008
B3	-1.951 log2	1.085 log2	–
B4	-2.012 log2	-0.162 log2	–
B5	–	–	Difference (log2), PP1 vs untreated ([1]; pairwise comparison PP1 vs untreated, student's t-test, 3 replicates each, LC-MS/MS label-free quantification): -2.05 log2; Difference (log2), untreated vs GFP ([2]; pairwise comparison untreated GFP-14-3-3β vs GFP, student's t-test, 3 replicates each, LC-MS/MS label-free quantification): 3.7091 log2
B6	-1.977 log2	2.991 log2	–
